Test results as given in the RNAGym collection of RNA variant scans (doi:10.1073/pnas.2313332121).
This sample holds only a part of the variants without activity.

B1: TPR 5TU (parent)
chain: GGAUCUUCUCGAUCUAACAAAAAAGACAAAUCUGCCACAAAGCUUGAGAGCAUCUUCGGAUGCAGAGGCGGCAGCCUUCGGUGGCGCGAUAGCGCCAACGUUCUCAACUAUGACACGCAAAACGCGUGCUCCGUUGAAUGGAGUUUAUCAUG

Variants of: B1
Experiment: polymerase ribozyme fitness, log enrichment relative to wild type (log ratio); higher = more active; in vitro selection for triplet polymerase activity
Procedure, shortened: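 Input and output libraries were sequenced on Illumina after a single in vitro selection round, run in triplicate on PCR-built, transcribed mutant libraries of each subunit of a heterodimeric triplet polymerase ribozyme. Selection annealed libraries to a biotinylated primer, the partner subunit and triplets, incubated them frozen at −7 °C, then gel-excised extended constructs for streptavidin-bead capture and RT-PCR. Genotypes with ≥10 input reads and ≥1 read per output were kept. Fitness is the logarithm, taken in base 2, of genotype enrichment divided by wild-type enrichment, using inverse-variance-weighted replicate averages.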

Variant | polymerase ribozyme fitness (log ratio)
C116U A120G | -0.0851
A97G C99U A142G | -1.1
G94C C96U A113U A115U U130C A137G | ≤ -4.2
G94C U127A | -3.75
A97U A98G | -2.31
A97U A137U | ≤ -4.2
A120G G124A | 0.00161
C105A A120G C123A C132U G136C | -3.32
G126A G133C | -0.815
A98G C103A | -0.961
G94C A150G | -1.6
C95A C96G | -2.25
C103A A120U G124A C125U | -2.03
C96U C116G | 0.963
C96U C116U | -0.186
C96G G143U | -3.01
C96G G143A | -2.42
C95U C116G | 0.0419
U102G A121G | -2.33
C95U C149G | -3.59
C95U C149U | -0.647
C96U A137C | -3.39
A121C U139G G140A U144G | -4.07
C96A A138U G140U | ≤ -4.2

Variant | polymerase ribozyme fitness (log ratio)
U101G A137G | -1.31
A122C C125A | -0.874
A113C C116A | ≤ -4.2
U109G C116U | -1.39
A119U G124U U146A | -0.483
C96G C103A | -2.09
C95U C125U | -0.278
C103A A142U | -3.79
C114U A119U G143A | -3.89
A113U | -1.59
A113C | -2.35
A113G | -0.894
C116A G141A | -2.34
C96U C99U | -0.378
C96U C99A | -1.51
G100A G136U A142U | ≤ -4.2
C96G A121U | -0.582
C96U U135C G140U | -3.67
A119C U139C A142C | -4.13
A121U C131U U134A | -2.42
U102G U146G | -4.17
G94C C131U U135G G152A | -3.32
C108U U146A | -2.84
C105U G124A | 0.519

Variant | polymerase ribozyme fitness (log ratio)
C96U U101G | 0.195
A110U C123U A142C | ≤ -4.2
C105U G143U | -2.41
A110C G140A | ≤ -4.2
C123U G141U | -0.894
U104A C125A | -0.813
C108U G141U | -3.1
G126A C149G | -3.13
C114G G140U | -3.9
U127A U139G G152U | ≤ -4.2
C96A U135A | -1.48
U102G C116U | -2.66
C103U G128A | -3.93
C96A G124U C149G | -3.82
G94C A138G G141A G143A | ≤ -4.2
C123G G141C | -0.168
U101G U144G | -0.737
U101G U144C | -1.9
C105A A150C | -3.93
C118U A147C | 0.751
C96A A97U C118U | -0.741
G126A U135C | -1.38
A97U G100A | -4.1
U127G U145G | ≤ -4.2

Variant | polymerase ribozyme fitness (log ratio)
G128A U146G | -4.16
C105A A106G | -0.311
A121U G141A | 0.973
C96U G141U | -0.301
U109G U151C | -3.91
C114G G133C | -3.93
A120C G152A | -2.33
G94U A98U G141A | 0.104
C116A C123U C125U | -3.41
G124A G133U U135C | -3.82
C95A G100U A106G A110G A142U | -4.01
G117A A150C | -3.86
U101G U145G | -0.0241
C96G G152C | -3.62
G94C U101A C105G G141C | ≤ -4.2
U130G U135C | -4.07
A97G C103A | -0.693
U104G U145G | -0.945
A107U A120U C123A | -3.58
U109C C116U C131U A147U | -1.68
C103A U139C | -3.89
A98G A119U C125A U151G | ≤ -4.2
A97U A150G | -1.61
A107C A147U | -3.71

Variant | polymerase ribozyme fitness (log ratio)
G94C C96U G112C U146C | ≤ -4.2
A106G U109C | -3.91
A106C C125G | -1.27
C96G U148G | -4.12
C96G U148C | -1.42
G100U U151A | ≤ -4.2
A119G G128C | -1.98
C99U C125U U144G | -0.905
A122C C125A G140A G143U | ≤ -4.2
U102A A119C G141C | -2.4
C96U G124C | -0.743
A106G A119C C125U | -0.389
C96U G128U | -3.45
C114G G143A | ≤ -4.2
C96G A98U G100A C108G G133C | ≤ -4.2
U127A U144C | -3.74
G128U U139C | -3.96
A98U U135A | -2.55
C95U U101C | -0.173
U127G G143A A147G | ≤ -4.2
C123U A137G | -0.927
C114G G141C U148A | ≤ -4.2
A97U U135G G140C | ≤ -4.2
C123G G133U | -3.68

Variant | polymerase ribozyme fitness (log ratio)
C99A C123G U145G | 0.0034
C96U A115U U145A | -1.79
C116G G143A | -2.16
U104G A120G | -0.0889
A113C G128A | -4.02
A121U U127C G143C | -4.06
A119C G133C | -1.83
C96U U102G G141C | -4.12
A120G U127C | -2.22
C95U C132G A150U | -3.31
C96A A107G | -4.2
C96A A107U | -2.87
C96G U104G G141U | -1.2
C116A U148A | -3.52
A98U G141A | -0.0351
A98U G141C | -0.0983
A113G A122U G136A U148A | -3.76
C96G C105U A113C A121U | -2.76
G133A | -3
G133C | -1.65
G133U | -2.62
A113G C118G | -1.86
A107U | -3.06
A107C | -3.58

Variant | polymerase ribozyme fitness (log ratio)
A107G | -2.92
C105U U130A C131G G140U | -3.96
A106G C116U U139A | ≤ -4.2
C116U G141A U146C | 0.219
C116A G136A | 1.97
C96U C118U | -0.211
A122U G136U | -2.24
C96U A150U | -0.525
C96U A150C | -3.31
C96G G141U | 0.463
G126A G141U | -2.59
A115U A142C | -3.39
A97U G141U | 0.189
A98G G140C | -3.59
C95A A98U U104G A106C | ≤ -4.2
A107C A119G C125A | ≤ -4.2
A106C U109G | -0.424
G128A U139G | -4.08
C105G C116U U145A | -0.747
C96U A110G C114U A142G | -4.07
G124A U127C | -2.79
C108U | -2.43
G94C C103U A119C C125A | -2
